Data as given in US20240209086A1 (PETMEDIX, published 2024).

B1: PMX158 (monospecific anti-canine CD3, canine IgG-B effector function deficient Fc) (antibody, V domains shown)
VH: ELTLQESGPGLVKPSQTLSLTCVVSGGSVTRSYYWNWIRQRPGRGLEWMGYWTGTTNYNPAFQGRISITADTAKNQCSLQLSSMTTEDTAVYYCAREGGKLLGAFGHWGQGTLVTVSS
VL: SYVLTQLPSKNVTLKQPAHITCGGDKIGSKSVHWYQQKLGQAPVLIIYYDSSRLTGIPERFSGANSGNTATLTISGALAEDEADYYCQVWDSSAKASVFGGGTHLTVL
B2: PMX160 (monospecific anti-canine CD3, canine IgG-B effector function deficient Fc) (antibody)
heavy: EVQMVESGGDLVKPGGSLRFSCVASGFTFSSYHMSWVRQAPGKGLQWVAYINSGGSRTSYADAVKGRFTISRDNAKNTLYLQMNSLRAEDTAVYYCASGRSPPPLGSFDYGLDYWGHGTSLFVSSASTTAPSVFPLAPSCGSTSGSTVALACLVSGYFPEPVTVSWNSGSLTSGVHTFPSVLQSSGLYSLSSMVTVPSSRWPSETFTCNVAHPASKTKVDKPVPKRENGRVPRPPDCPKCPAPESLGGPSVFIFPPKPKDTLLIARTPEVTCVVVDLGREDPEVQISWFVDGKQMQTAKTQPREEQFNGTYRVVSVLPIGHQDWLKGKQFTCKVNHIGLPSPIERTISKARGQAHQPSVYVLPPSREELSKNTVSLTCLIKDFFPPDIDVEWQSNGQQEPESKYRTTPPQLDEDGSYFLYSKLSVDKSRWQRGDTFICAVMHEALHNHYTQKSLSHSPGK
VL: SYVLTQLPSKNVTLKQPAHITCGGDNIGSKSVHWYQQKLGQAPVLIIYYDSSRPTGIPERFSGANSGNTATLTISGALAEDEADYYCQVWDSSAKAWVFGEGTQLTVL
B3: PMX159 (monospecific anti-canine CD3, canine IgG-B effector function deficient Fc) (antibody, V domains shown)
VH: ELTLQESGPGLVKPSQTLSLTCVVSGGSVTRSYYWNWIRQRPGRGLEWMGYWTGSTIYNPTFQGRISITADTAKSQFSLQLRSMTTEDTAMYFCAREGGKSLGAFAYWGQGTLVTVSS
VL: SYVLTQLPSKNVTLKQPAHITCGGDKIGSKNVHWYQQKLGQAPVMIIYYDSSRPTGIPERFSGANSGNTATLTISGALAEDEADYYCQVWDSSAKAAVFGGGTHLTVL
B4: PMX162 (monospecific anti-canine CD3, canine IgG-B effector function deficient Fc) (antibody)
heavy: EMQLVESGGDLVKPGGSLRLSCVASGFTFSTYHMSWVRQAPGKGLQWVAYSNSGGTRTYYADAVKGRFTISRDNVKNTLYLQMNSLRAEDTAVYYCASEGSGGGRYGFKDYGMDYWGHGTSLFVSTASTTAPSVFPLAPSCGSTSGSTVALACLVSGYFPEPVTVSWNSGSLTSGVHTFPSVLQSSGLYSLSSMVTVPSSRWPSETFTCNVAHPASKTKVDKPVPKRENGRVPRPPDCPKCPAPESLGGPSVFIFPPKPKDTLLIARTPEVTCVVVDLGREDPEVQISWFVDGKQMQTAKTQPREEQFNGTYRVVSVLPIGHQDWLKGKQFTCKVNHIGLPSPIERTISKARGQAHQPSVYVLPPSREELSKNTVSLTCLIKDFFPPDIDVEWQSNGQQEPESKYRTTPPQLDEDGSYFLYSKLSVDKSRWQRGDTFICAVMHEALHNHYTQKSLSHSPGK
VL: SYVLTQLPSKNVTLKQPAHITCGGDNIGSKSVHWYQQKLGQAPVLIIYYDSSRPTGIPERFSGANSGNTATLTISGALAEDEADYYCQVWDSSAKAWVFGEGTQLTVL
B5: PMX163 (monospecific anti-canine CD3, canine IgG-B effector function deficient Fc) (antibody, V domains shown)
VH: ELALQESGPGLVRPSQTLSLTCVVSGGSVTRSYYWNWIRQRPGRGLEWMGYWTGTTIYNPAFQGRISITVDTAKNQFSLHLISMTTEDTAVYYCGREGGSSLGAIAYWGQGTRVTVSS
VL: SYVLTQLPSKNVTLKQPAHITCGGDNIGSKSVHWYQQKLGQAPVLIIYYDSSRPTGIPERFSGANSGNTATLTISGALAEDEADYYCQVWDSSAKAAVFGGGTHLTVL
B6: PMX173 (monospecific anti-canine CD3, canine IgG-B effector function deficient Fc) (antibody)
heavy: EVQLVESGGDLVKPGGSLRLSCVASGFTFSTYHMSWVRQAPGKGLQWVAYSHSGGTRTYYADAVKGRFTISRDNGKNTLYLQMNSLRAEDTAVYYCASEGSGGGRYGFKDYGMDYWGHGTSLFVSTASTTAPSVFPLAPSCGSTSGSTVALACLVSGYFPEPVTVSWNSGSLTSGVHTFPSVLQSSGLYSLSSMVTVPSSRWPSETFTCNVAHPASKTKVDKPVPKRENGRVPRPPDCPKCPAPESLGGPSVFIFPPKPKDTLLIARTPEVTCVVVDLGREDPEVQISWFVDGKQMQTAKTQPREEQFNGTYRVVSVLPIGHQDWLKGKQFTCKVNHIGLPSPIERTISKARGQAHQPSVYVLPPSREELSKNTVSLTCLIKDFFPPDIDVEWQSNGQQEPESKYRTTPPQLDEDGSYFLYSKLSVDKSRWQRGDTFICAVMHEALHNHYTQKSLSHSPGK
VL: SYVLTQLPSKNVTLKQPAHITCGGDNIGSKSVHWYQQKLGQAPVLIIYYDSSRPTGIPERFSGANSGNTATLTISGALAEDEADYYCQVWDSSAKAWVFGEGTQLTVL

Target: canine CD3 on canine T cells (canine PBMC) (canine, UniProt P27597 22-202)
Sequence (P27597 22-202 limits assumed, chain 1 of 3): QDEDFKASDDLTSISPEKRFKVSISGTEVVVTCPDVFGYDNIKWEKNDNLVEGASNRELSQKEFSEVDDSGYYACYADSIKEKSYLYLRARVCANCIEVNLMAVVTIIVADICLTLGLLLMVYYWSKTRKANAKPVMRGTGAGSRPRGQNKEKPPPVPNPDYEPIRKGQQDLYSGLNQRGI
Sequence (chain, as listed by the source limits assumed, chain 2 of 3): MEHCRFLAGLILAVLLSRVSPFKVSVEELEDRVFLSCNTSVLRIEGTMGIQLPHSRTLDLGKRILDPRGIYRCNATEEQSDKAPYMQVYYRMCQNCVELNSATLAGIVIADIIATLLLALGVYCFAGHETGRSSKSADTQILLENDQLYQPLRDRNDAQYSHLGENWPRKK
Sequence (chain, as listed by the source limits assumed, chain 3 of 3): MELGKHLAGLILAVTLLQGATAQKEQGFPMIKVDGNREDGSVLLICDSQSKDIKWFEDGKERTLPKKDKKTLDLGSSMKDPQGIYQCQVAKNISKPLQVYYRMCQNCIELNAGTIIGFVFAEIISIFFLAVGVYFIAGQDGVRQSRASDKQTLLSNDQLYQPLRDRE
Assay: cell-based or functional assay

Row | Binder | CD25 Activation, Day 6, IS | CD25 Activation, Day 6, PB | CD25 Activation, Day 9, IS | CD25 Activation, Day 9, PB | IFNy Concentration pg/ml, Day 6, IS [pg/mL] | IFNy Concentration pg/ml, Day 9, IS [pg/mL] | IFNy Concentration pg/ml, Day 9, PB [pg/mL] | Ki67 Proliferation, Day 6, IS | Ki67 Proliferation, Day 6, PB | Ki67 Proliferation, Day 9, IS
1 | B1 | 13.1 | 9.65 | 5.45 | 12.3 | 48.2 | 88.3 | 2440 | 2.63 | 0.54 | 0.45
2 | B2 | 10.6 | 9.42 | 7.14 | 5.98 | 36.5 | 114 | 1460 | 0.84 | 0.12 | 1.87
3 | B3 | 11.3 | 11.5 | 9.13 | 13.1 | 137 | 262 | 3050 | 1.69 | 0.37 | 1.28
4 | B4 | 16 | 8.64 | 8.75 | 10.4 | 61.1 | 89.2 | 330 | 1.73 | 0.36 | 0.51
5 | B5 | 13.3 | 18.8 | 10.1 | 14.6 | 56.2 | 145 | 3770 | 4.91 | 0.3 | 0.71
6 | B6 | 8.5 | 13.3 | 9.37 | 11.5 | 56.7 | 125 | 1110 | 1.01 | 0.57 | 1.38

Same assay, conditions: not given

Row | Binder | Ki67 Proliferation, Day 9, PB
7 | B1 | 0
8 | B2 | 0.33
9 | B3 | 0
10 | B4 | 0.43
11 | B5 | 0.75
12 | B6 | 0.34
